Measurements from article PMC9559407, “Enzyme linked oligonucleotide assay for the sensitive detection of SARS-CoV-2 variants”.

Molecular target: SARS-CoV-2 spike RBD (called RBD S glycoprotein) (SARS-CoV-2 (2019-nCoV), UniProt P0DTC2 319-541)
Test: direct ELONA
Details: protein: commercial; label: 5'-biotin

B1: CoV2-RBD-1C (ssDNA)
DNA: CAGCACCGACCTTGTGCTTTGGGAGTGCTGGTCCAAGGGCGTTAATGGACA
B1: binds.
